# From patent publication US20200247855A1 (published 2020)
# Substitutions are numbered along the chain they refer to. Read-outs that look alike come from different tables or passages of the source.
# T1: CCL18_HUMAN (human, UniProt P55774 21-89)
# T1 chain: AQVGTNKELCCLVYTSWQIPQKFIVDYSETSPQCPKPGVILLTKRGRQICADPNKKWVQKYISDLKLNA
# T2: CCL21_HUMAN (human, UniProt O00585 24-134)
# T2 chain: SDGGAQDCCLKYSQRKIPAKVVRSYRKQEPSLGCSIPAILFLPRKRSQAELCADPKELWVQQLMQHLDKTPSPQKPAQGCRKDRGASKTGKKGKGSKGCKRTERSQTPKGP
# T3: CCL1_HUMAN (human, UniProt P22362 24-96)
# T3 chain: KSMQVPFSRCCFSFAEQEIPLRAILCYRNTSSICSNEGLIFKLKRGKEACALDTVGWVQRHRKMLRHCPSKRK
# T4: CCL23_HUMAN (human, UniProt P55773 22-120)
# T4 chain: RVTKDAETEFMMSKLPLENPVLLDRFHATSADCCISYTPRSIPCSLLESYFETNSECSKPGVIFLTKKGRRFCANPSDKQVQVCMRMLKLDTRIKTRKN
# T5: CCL16_HUMAN (human, UniProt O15467 24-120)
# T5 chain: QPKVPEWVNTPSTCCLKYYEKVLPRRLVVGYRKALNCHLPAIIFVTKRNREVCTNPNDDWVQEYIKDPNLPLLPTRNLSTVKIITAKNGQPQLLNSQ
# T6: CCL3_HUMAN (human, UniProt P10147 24-92)
# T6 chain: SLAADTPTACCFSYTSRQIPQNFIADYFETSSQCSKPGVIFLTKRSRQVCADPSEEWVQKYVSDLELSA
# T7: CCL19_HUMAN (human, UniProt Q99731 22-98)
# T7 chain: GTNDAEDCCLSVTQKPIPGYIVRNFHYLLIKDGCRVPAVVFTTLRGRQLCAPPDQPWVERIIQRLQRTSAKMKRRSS
# T8: CCL14_HUMAN (human, UniProt Q16627 22-93)
# T8 chain: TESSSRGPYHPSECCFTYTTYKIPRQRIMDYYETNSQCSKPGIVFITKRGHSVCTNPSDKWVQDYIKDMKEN
# T9: CCL22_HUMAN (human, UniProt O00626 25-93)
# T9 chain: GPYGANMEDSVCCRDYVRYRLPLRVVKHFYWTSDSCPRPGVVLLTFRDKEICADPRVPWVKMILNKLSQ
# T10: CCL24_HUMAN (human, UniProt O00175 27-104)
# T10 chain: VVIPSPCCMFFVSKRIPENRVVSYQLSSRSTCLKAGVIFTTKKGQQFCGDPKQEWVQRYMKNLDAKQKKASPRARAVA
# T11: CCL15_HUMAN (human, UniProt Q16663 22-113)
# T11 chain: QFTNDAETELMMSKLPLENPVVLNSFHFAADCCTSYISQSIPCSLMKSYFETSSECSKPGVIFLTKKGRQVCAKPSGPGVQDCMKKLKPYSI
# T12: CCL3L1_HUMAN (human, UniProt P16619 24-93)
# T12 chain: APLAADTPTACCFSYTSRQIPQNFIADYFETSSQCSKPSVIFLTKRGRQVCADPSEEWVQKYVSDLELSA
# T13: CCL17_HUMAN (human, UniProt Q92583 24-94)
# T13 chain: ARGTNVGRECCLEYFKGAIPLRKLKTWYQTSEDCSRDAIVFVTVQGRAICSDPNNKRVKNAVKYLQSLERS
# T14: CCL5_HUMAN (human, UniProt P13501 24-91)
# T14 chain: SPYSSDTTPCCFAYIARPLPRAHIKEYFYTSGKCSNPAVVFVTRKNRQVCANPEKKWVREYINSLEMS
# T15: CCL8_HUMAN (human, UniProt P80075 24-99)
# T15 chain: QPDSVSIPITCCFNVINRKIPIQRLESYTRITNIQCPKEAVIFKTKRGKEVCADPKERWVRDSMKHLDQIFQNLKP
# T16: CCL4_HUMAN (human, UniProt P13236 24-92)
# T16 chain: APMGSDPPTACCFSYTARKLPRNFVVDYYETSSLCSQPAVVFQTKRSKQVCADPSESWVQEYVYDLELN
# T17: CCL4L1_HUMAN (human, UniProt Q8NHW4 24-92)
# T17 chain: T16 chain with S47G
# B1: P1156_IXORI (other)
# chain: ADDDNELFTVQYCGMNCTKDEGGTWTGCTGKKEGCKCYHESGKNYGLCLSTEYTDFSQYGNPSDSEIEAAKPKRSDTLSH
# B2: P991_AMBCA (other)
# chain: ENGEGTTQPDYDNSTDYYNYEDFKCTCPAPHLNNTNGTVMKPIGCYYTCNVTRCTAPDTYPCYNLTEHQAKNLTTSPTTLCAVGNCDHGICVPNGTKELCFKAPNLEE
# B3: P1156 (other)
# chain: B1 chain
# Experiments:
# [1] = molecular target: T18, CXCL8_HUMAN (human, UniProt P10145 28-99); assay: BLI
# T18 sequence (P10145 28-99): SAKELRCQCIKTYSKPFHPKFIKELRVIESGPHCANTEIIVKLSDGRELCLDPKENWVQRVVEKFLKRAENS
# [2] = molecular target: T19, CXCL1_HUMAN (human, UniProt P09341 35-107); assay: BLI
# T19 sequence (P09341 35-107): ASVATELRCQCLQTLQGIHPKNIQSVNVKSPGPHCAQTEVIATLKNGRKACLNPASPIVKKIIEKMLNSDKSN
# [3] = molecular target: CXCL6_HUMAN; assay: BLI
# [4] = molecular target: CXCL5_HUMAN; assay: BLI
# [5] = molecular target: CXCL2_HUMAN; assay: BLI
# [6] = molecular target: CXCL5; assay: BLI
# [7] = molecular target: CXCL2; assay: BLI
# [8] = molecular target: CXCL6; assay: BLI
# [9] = molecular target: T18, CXCL8_HUMAN; assay: BLI; remark: listed apart in the source
# [10] = molecular target: T19, CXCL1_HUMAN; assay: BLI; remark: listed apart in the source
# [11] = molecular target: T20, CXCL3_HUMAN (human, UniProt P19876 35-107); assay: BLI
# T20 sequence (P19876 35-107): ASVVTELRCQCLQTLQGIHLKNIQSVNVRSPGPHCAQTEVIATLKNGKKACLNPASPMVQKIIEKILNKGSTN
# [12] = molecular target: T20, CXCL3_HUMAN; assay: BLI; previously obtained data
# [13] = molecular target: T1, CCL18_HUMAN; assay: BLI
# [14] = molecular target: T2, CCL21_HUMAN; assay: BLI
# [15] = molecular target: T3, CCL1_HUMAN; assay: BLI
# [16] = molecular target: T4, CCL23_HUMAN; assay: BLI
# [17] = molecular target: CCL2_HUMAN (human, UniProt P13500 24-99); assay: BLI
# Chain of CCL2_HUMAN (P13500 24-99): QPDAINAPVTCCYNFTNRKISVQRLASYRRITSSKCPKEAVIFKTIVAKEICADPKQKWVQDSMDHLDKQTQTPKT
# [18] = molecular target: CCL11_HUMAN (human, UniProt P51671 24-97); assay: BLI
# Chain of CCL11_HUMAN (P51671 24-97): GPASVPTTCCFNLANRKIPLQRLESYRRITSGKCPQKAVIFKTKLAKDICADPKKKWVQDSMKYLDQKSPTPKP
# [19] = molecular target: T5, CCL16_HUMAN; assay: BLI
# [20] = molecular target: T6, CCL3_HUMAN; assay: BLI
# [21] = molecular target: T7, CCL19_HUMAN; assay: BLI
# [22] = molecular target: CCL20_HUMAN (human, UniProt P78556 27-96); assay: BLI
# Chain of CCL20_HUMAN (P78556 27-96): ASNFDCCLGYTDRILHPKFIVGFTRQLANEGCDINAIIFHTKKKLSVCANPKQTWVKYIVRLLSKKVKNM
# [23] = molecular target: T8, CCL14_HUMAN; assay: BLI
# [24] = molecular target: T9, CCL22_HUMAN; assay: BLI
# [25] = molecular target: T10, CCL24_HUMAN; assay: BLI
# [26] = molecular target: T11, CCL15_HUMAN; assay: BLI
# [27] = molecular target: T12, CCL3L1_HUMAN; assay: BLI
# [28] = molecular target: CCL13_HUMAN (human, UniProt Q99616 24-98); assay: BLI
# Chain of CCL13_HUMAN (Q99616 24-98): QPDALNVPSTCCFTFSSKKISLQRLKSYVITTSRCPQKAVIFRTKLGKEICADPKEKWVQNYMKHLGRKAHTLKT
# [29] = molecular target: T13, CCL17_HUMAN; assay: BLI
# [30] = molecular target: CCL7_HUMAN (human, UniProt P80098 24-99); assay: BLI
# Chain of CCL7_HUMAN (P80098 24-99): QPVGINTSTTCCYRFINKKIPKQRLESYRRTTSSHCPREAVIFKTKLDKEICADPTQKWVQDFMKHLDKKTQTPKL
# [31] = molecular target: T14, CCL5_HUMAN; assay: BLI
# [32] = molecular target: T15, CCL8_HUMAN; assay: BLI
# [33] = molecular target: T16, CCL4_HUMAN; assay: BLI
# [34] = molecular target: T17, CCL4L1_HUMAN; assay: BLI
# [35] = molecular target: CXCL5; assay: BLI; remark: listed apart in the source
# [36] = molecular target: CXCL2; assay: BLI; remark: listed apart in the source
# [37] = molecular target: CXCL6; assay: BLI; previously obtained data
binder,measurement,setting,value
B1,Kd,[1],4.84 nM
same,Kd,[2],6.53 nM
same,Kd,[3],117 nM
same,Kd,[4],71.9 nM
same,Kd,[5],17 nM
same,Kd,[6],29.8 nM
same,Kd,[7],50.6 nM
same,Kd,[8],62.7 nM
same,Kd,[9],2.9 nM
same,Kd,[10],5.8 nM
same,Kd,[11],70.4 nM
same,Kd,[12],70.4 nM
B2,Kd,[13],0.252 nM
same,Kd,[14],26.1 nM
same,Kd,[15],8.6 nM
same,Kd,[16],5.87 nM
same,Kd,[17],24.7 nM
same,Kd,[18],1.9 nM
same,Kd,[19],0.536 nM
same,Kd,[20],2.24 nM
same,Kd,[21],12 nM
same,Kd,[22],15.4 nM
same,Kd,[23],0.711 nM
same,Kd,[24],3.01 nM
same,Kd,[25],5.42 nM
same,Kd,[26],109 nM
same,Kd,[27],2.99 nM
same,Kd,[28],0.191 nM
same,Kd,[29],7.37 nM
same,Kd,[30],0.241 nM
same,Kd,[31],0.869 nM
same,Kd,[32],15.9 nM
same,Kd,[33],3.68 nM
same,Kd,[34],1.34 nM
B3,Kd,[35],39.9 nM
same,Kd,[36],30.3 nM
same,Kd,[37],62.7 nM
